Test results taken from paper PMC8804299, “The Response of the Estrogen-Related Receptor to 20-Hydroxyecdysone in Bombyx mori: Insight Into the Function of Estrogen-Related Receptor in Insect 20-Hydroxyecdysone Signaling Pathway”.

B1: EcRE-like 1 mutant probe (Bio-ERRE-1 mut) (dsDNA)
DNA 1: ATTAGACGATGACGGGTCATGACCT
DNA 2: AGGTCATGACCCGTCATCGTCTAAT
B2: EcRE-like 3 probe (Bio-ERRE-3) (dsDNA)
DNA 1: GTTCCGAAATAAAATTACCTGATGGTA
DNA 2: TACCATCAGGTAATTTTATTTCGGAAC
B3: EcRE-like 2 probe (Bio-ERRE-2) (dsDNA)
DNA 1: TAAAGAACCTTTATTAAAATTAAAATA
DNA 2: TATTTTAATTTTAATAAAGGTTCTTTA
B4: EcRE-like 8 probe (Bio-ERRE-8) (dsDNA)
DNA 1: GAGACAGCGTTAGCTGATATTCTAAAT
DNA 2: ATTTAGAATATCAGCTAACGCTGTCTC
B5: EcRE-like 1 probe (Bio-ERRE-1) (dsDNA)
DNA 1: ATTAAGTAGCAGTAAACTGTGACCT
DNA 2: AGGTCACAGTTTACTGCTACTTAAT

Molecular target: T1, BmEcR (ecdysone receptor);BmUSP (ultraspiracle) (Bombyx mori;Bombyx mori, UniProt P49881;P49700 1-606;1-462, |)
T1 sequence 1: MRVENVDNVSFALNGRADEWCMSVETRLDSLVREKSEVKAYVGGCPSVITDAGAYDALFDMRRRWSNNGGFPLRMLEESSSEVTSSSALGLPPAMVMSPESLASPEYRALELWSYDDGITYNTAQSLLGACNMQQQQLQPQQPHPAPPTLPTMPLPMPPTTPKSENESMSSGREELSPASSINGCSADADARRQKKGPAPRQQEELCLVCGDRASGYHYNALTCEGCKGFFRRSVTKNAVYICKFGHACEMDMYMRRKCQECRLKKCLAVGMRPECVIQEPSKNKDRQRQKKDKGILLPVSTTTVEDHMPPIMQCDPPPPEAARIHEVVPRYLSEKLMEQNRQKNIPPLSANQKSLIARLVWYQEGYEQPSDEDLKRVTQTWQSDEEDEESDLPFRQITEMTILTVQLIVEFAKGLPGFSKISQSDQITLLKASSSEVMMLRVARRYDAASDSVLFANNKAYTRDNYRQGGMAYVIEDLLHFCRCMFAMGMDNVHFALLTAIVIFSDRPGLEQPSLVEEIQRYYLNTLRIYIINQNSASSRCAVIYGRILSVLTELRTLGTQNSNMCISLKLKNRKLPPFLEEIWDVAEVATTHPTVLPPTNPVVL
T1 sequence 2: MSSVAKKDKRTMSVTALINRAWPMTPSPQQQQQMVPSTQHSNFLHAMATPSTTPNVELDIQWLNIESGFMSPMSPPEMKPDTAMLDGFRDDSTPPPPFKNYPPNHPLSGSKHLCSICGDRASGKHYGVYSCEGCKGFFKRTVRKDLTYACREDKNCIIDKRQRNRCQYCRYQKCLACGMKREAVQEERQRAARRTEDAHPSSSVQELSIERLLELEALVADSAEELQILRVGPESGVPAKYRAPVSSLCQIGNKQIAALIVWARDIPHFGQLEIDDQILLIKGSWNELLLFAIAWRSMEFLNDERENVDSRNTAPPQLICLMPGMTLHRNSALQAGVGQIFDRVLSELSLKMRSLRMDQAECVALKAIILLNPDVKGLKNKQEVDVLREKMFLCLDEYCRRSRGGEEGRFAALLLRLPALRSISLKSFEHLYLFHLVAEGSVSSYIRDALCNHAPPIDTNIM
Assay: EMSA; EMSA: 25 C for 25 min; Beyotime chemiluminescent EMSA kit (binding buffer not stated); 5% native PAGE in Tris-borate-EDTA (45 mM Tris-borate, 1 mM EDTA, pH 8.3); probe 5 uM, BmEcR 0.3 ug/uL, BmUSP 0.45 ug/uL
Conditions: protein: recombinant;recombinant; tags: ;; copies: 1;1; label: 3'-biotin; blunt

Binder	binding result
B1	no binding
B2	no binding
B3	no binding
B4	no binding
B5	binds
